According to US20220016218A1 (YISSUM RESEARCH DEVELOPMENT COMPANY OF THE HEBREW …, published 2022):
*1 amine or outer side, *2 acyl side, *3 side chain or, on linkers, in order; H or OH if unused. Where a SMILES comes first, the peptide text is derived from it. [ ]: non-standard residue; d: D form. Arg(ω,ω'-(C6H13OCO)2) = CCCCCCOC(=O)N=C(NCCC[C@H](N)C(=O)O)NC(=O)OCCCCCC; X1 = CCCCCCOC(=O)N=C(NCCC[C@@H](N[*:1])C(=O)[*:2])NC(=O)OCCCCCC; dNMeR = CN[C@H](CCCNC(=N)N)C(=O)O; NMeD = CN[C@@H](CC(=O)O)C(=O)O; NMeV = CN[C@H](C(=O)O)C(C)C; NMeA = CN[C@@H](C)C(=O)O; dNMeA = CN[C@H](C)C(=O)O

Tests used:
[1] = shake flask in triplicate (rotator; centrifuged); both phases by HPLC-MS/MS; mebendazole reference; conditions: PBS pH 7.4, mutually saturated, not stated C, DMSO stock (small aliquot)
human αvβ3-integrin = molecular target: T1, human αvβ3-integrin (human, UniProt P06756 31-992; P05106 27-718); assay: solid-phase competition assay: soluble human αvβ3 on coated vitronectin
T1 construct: Soluble integrin bought from R&D; also called integrin subtype αvβ3; αvβ3 receptor

human αvβ5-integrin = molecular target: T2, human αvβ5-integrin (human, UniProt P06756 31-992; P18084 24-719, limits assumed); assay: solid-phase competition assay: soluble human αvβ5 on coated vitronectin
T2 construct: Soluble integrin bought from Millipore

human αvβ6-Integrin [2] = molecular target: T3, human αvβ6-Integrin (human, UniProt P06756 31-992; P18564 22-707, limits assumed); assay: solid-phase competition assay: soluble human αvβ6 on coated LAP (TGF-β)
T3 construct: Soluble integrin bought from R&D

human αvβ8-Integrin = molecular target: T4, human αvβ8-Integrin (human, UniProt P06756 31-992; P26012 43-684); assay: solid-phase competition assay; value given for the internal standard
T4 construct: Soluble integrin bought from R&D

human αvβ6-Integrin [3] = molecular target: T3, human αvβ6-Integrin; assay: as above

T1 sequence (P06756 31-992 limits assumed, chain 1 of 2): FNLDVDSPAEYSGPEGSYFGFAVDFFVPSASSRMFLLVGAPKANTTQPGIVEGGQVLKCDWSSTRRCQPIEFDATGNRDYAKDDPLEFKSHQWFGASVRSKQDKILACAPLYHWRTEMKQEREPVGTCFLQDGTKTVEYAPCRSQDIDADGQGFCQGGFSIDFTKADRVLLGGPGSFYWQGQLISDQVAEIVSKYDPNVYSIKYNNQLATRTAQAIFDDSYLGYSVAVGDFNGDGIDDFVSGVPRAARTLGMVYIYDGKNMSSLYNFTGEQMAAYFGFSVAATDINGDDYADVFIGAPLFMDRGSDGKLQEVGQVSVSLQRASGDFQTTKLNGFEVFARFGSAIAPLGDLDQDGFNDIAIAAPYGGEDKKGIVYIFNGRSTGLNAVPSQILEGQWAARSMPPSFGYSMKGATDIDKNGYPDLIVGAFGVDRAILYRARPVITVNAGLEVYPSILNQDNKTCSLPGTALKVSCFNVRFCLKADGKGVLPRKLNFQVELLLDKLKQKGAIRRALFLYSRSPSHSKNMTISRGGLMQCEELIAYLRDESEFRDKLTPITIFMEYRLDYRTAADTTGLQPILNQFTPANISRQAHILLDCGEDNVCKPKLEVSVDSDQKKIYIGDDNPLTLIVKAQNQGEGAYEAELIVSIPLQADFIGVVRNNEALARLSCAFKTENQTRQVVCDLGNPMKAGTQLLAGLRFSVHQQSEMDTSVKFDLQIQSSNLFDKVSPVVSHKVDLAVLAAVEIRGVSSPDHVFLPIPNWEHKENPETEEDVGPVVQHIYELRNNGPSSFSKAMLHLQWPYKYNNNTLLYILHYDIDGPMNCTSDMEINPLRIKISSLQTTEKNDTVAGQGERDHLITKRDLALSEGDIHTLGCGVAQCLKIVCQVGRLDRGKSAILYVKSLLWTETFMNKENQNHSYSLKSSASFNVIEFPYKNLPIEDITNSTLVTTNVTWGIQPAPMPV
T1 sequence (P05106 27-718 limits assumed, chain 2 of 2): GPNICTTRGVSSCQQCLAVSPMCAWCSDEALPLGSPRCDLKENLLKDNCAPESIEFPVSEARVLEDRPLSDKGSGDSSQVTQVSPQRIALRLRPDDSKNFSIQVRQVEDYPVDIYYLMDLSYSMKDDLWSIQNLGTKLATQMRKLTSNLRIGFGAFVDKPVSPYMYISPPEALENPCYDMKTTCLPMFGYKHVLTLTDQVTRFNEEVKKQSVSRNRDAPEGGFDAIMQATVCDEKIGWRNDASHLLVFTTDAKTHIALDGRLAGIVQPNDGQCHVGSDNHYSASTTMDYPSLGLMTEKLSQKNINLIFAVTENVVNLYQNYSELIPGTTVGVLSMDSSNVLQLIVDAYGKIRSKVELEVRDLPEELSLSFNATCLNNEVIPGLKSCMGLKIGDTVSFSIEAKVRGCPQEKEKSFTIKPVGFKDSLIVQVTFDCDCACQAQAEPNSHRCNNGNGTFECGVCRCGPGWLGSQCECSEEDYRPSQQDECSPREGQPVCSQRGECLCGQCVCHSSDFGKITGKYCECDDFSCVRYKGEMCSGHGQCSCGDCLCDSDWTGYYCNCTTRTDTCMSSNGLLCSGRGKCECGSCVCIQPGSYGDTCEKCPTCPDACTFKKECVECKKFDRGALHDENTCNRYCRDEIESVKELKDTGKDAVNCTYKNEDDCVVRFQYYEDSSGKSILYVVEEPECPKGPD
T3 sequence (P06756 31-992 limits assumed, chain 1 of 2): as the sequence (P06756 31-992 limits assumed, chain 1 of 2) above
T3 sequence (P18564 22-707 limits assumed, chain 2 of 2): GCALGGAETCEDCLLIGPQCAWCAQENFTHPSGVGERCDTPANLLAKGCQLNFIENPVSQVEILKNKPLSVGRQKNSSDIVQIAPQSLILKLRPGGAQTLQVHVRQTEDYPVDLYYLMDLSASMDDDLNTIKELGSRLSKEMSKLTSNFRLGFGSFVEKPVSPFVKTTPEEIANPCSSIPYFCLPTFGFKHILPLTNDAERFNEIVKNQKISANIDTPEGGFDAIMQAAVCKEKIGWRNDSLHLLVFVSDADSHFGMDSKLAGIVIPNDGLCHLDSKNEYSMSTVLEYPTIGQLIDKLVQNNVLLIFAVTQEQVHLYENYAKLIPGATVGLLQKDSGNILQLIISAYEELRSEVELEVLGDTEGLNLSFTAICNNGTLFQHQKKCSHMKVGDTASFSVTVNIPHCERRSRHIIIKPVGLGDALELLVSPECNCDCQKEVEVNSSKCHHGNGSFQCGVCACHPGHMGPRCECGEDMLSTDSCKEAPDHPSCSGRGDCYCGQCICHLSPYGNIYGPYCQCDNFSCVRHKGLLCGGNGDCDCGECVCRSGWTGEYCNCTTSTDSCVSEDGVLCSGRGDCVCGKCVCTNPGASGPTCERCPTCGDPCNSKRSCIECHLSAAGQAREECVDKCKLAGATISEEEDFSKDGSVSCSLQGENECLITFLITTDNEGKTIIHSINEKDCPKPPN
T2 sequence (P06756 31-992 limits assumed, chain 1 of 2): as the sequence (P06756 31-992 limits assumed, chain 1 of 2) above
T2 sequence (P18084 24-719 limits assumed, chain 2 of 2): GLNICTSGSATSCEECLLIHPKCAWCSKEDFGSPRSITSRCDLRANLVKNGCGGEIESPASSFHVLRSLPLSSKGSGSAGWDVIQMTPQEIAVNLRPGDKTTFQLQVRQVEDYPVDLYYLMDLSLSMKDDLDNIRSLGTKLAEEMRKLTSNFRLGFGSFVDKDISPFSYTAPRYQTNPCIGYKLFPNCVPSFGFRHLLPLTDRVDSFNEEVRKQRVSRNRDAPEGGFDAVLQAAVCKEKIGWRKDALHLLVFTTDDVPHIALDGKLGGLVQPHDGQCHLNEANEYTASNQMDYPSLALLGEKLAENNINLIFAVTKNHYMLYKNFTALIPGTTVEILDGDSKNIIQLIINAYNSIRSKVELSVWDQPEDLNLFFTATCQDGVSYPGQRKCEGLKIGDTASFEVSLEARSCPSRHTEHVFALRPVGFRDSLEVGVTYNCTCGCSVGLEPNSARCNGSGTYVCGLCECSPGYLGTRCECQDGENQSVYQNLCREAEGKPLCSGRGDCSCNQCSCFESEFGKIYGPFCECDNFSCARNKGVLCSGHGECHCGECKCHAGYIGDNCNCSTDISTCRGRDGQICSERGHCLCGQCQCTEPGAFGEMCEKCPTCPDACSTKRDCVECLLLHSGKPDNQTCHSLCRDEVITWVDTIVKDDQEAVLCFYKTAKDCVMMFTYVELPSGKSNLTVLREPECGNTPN
T4 sequence (P06756 31-992 limits assumed, chain 1 of 2): as the sequence (P06756 31-992 limits assumed, chain 1 of 2) above
T4 sequence (P26012 43-684 limits assumed, chain 2 of 2): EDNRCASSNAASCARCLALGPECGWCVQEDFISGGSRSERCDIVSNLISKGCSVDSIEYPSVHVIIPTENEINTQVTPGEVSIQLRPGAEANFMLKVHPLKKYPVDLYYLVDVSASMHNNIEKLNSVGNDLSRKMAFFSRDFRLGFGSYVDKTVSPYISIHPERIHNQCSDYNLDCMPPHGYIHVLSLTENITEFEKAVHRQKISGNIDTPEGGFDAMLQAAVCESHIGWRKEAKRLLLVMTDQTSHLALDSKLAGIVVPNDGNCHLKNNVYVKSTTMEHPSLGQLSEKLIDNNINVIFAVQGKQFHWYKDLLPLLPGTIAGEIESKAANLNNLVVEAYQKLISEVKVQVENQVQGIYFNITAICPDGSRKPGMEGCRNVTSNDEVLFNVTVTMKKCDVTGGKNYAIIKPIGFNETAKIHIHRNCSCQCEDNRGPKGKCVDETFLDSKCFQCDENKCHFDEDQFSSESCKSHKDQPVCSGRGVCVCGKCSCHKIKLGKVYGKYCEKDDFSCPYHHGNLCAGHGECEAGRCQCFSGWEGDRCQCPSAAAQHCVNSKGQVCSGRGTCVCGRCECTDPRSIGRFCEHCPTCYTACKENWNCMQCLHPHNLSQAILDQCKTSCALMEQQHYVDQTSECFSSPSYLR

CC(C)[C@@H]1C(=O)N[C@@H](CCCNC(=N)N)C(=O)NCC(=O)N[C@@H](CC(=O)O)C(=O)N[C@@H](C)C(=O)N(C)[C@@H](C)C(=O)N1C
log D (1-octanol / PBS pH 7.4) [1]: <−1 log units

CCCCCCOC(=O)N=C(NCCC[C@@H]1NC(=O)[C@H](CC(C)C)NC(=O)CNC(=O)[C@@H]2CCCN2C(=O)[C@@H]2CCCN2C(=O)[C@H](CC(C)C)NC(=O)[C@H](CC(=O)O)NC(=O)CNC1=O)NC(=O)OCCCCCC (cyclo(LPPGL[Arg(ω,ω'-(C6H13OCO)2)]GD))
log D (1-octanol / PBS pH 7.4) [1]: >4.5 log units

CCCCCCOC(=O)NC(=N)NCCC[C@@H]1NC(=O)[C@@H](C(C)C)N(C)C(=O)[C@H](C)N(C)C(=O)[C@H](C)NC(=O)[C@H](CC(=O)OC)NC(=O)CNC1=O
log D (1-octanol / PBS pH 7.4) [1]: 1.85 log units

CCCCCCOC(=O)N=C(NCCC[C@@H]1NC(=O)[C@H](Cc2ccccc2)NC(=O)[C@@H]2CCCN2C(=O)[C@@H]2CCCN2C(=O)[C@H](CC(C)C)NC(=O)[C@H](C)NC(=O)[C@H](CC(C)C)NC(=O)[C@H](CC(=O)O)NC(=O)CNC1=O)NC(=O)OCCCCCC (cyclo(ALPPF[Arg(ω,ω'-(C6H13OCO)2)]GDL))
log D (1-octanol / PBS pH 7.4) [1]: >4.5 log units

CCCCCCOC(=O)N=C(NCCC[C@@H]1NC(=O)[C@H](C(C)C)N(C)C(=O)[C@@H](Cc2ccccc2)NC(=O)[C@H](CC(=O)O)NC(=O)CNC1=O)NC(=O)OCCCCCC
log D (1-octanol / PBS pH 7.4) [1]: 3.95 log units

CCCCCCOC(=O)N=C(NCCC[C@H]1NC(=O)[C@H](C(C)C)N(C)C(=O)[C@@H](C)N(C)C(=O)[C@@H](C)NC(=O)[C@@H](CC(=O)OC)NC(=O)CNC1=O)NC(=O)OCCCCCC (cyclo(G[dD](OMe)[dA][dNMeA][NMeV][X1]))
log D (1-octanol / PBS pH 7.4) [1]: >4.5 log units

CCCCCCOC(=O)N=C(NCCC[C@@H]1NC(=O)[C@@H](C(C)C)N(C)C(=O)[C@H](C)N(C)C(=O)[C@H](C)NC(=O)[C@H](CC(=O)OC)NC(=O)CNC1=O)NC(=O)OCCCCCC
log D (1-octanol / PBS pH 7.4) [1]: 4.86 log units

CC(C)[C@H]1C(=O)N[C@@H](CCCNC(=N)N)C(=O)NCC(=O)N[C@@H](CC(=O)O)C(=O)N[C@H](Cc2ccccc2)C(=O)N1C
log D (1-octanol / PBS pH 7.4) [1]: <−1 log units

CC(C)C[C@@H]1NC(=O)CNC(=O)[C@@H]2CCCN2C(=O)[C@@H]2CCCN2C(=O)[C@H](CC(C)C)NC(=O)[C@H](CC(=O)O)NC(=O)CNC(=O)[C@H](CCCNC(=N)N)NC1=O (cyclo(RGDLPPGL))
log D (1-octanol / PBS pH 7.4) [1]: <−1 log units

CC(C)C[C@@H]1NC(=O)[C@H](CC(=O)O)NC(=O)CNC(=O)[C@H](CCCNC(=N)N)NC(=O)[C@H](Cc2ccccc2)NC(=O)[C@@H]2CCCN2C(=O)[C@@H]2CCCN2C(=O)[C@H](CC(C)C)NC(=O)[C@H](C)NC1=O (cyclo(RGDLALPPF))
log D (1-octanol / PBS pH 7.4) [1]: −0.19 log units

COC(=O)Nc1nc2cc(C(=O)c3ccccc3)ccc2[nH]1
log D (1-octanol / PBS pH 7.4) [1]: 3.04 log units

cyclo([dR]G[NMeD]A[NMeA]A) (NMe(3,5) scaffold cyclic hexapeptide) [peptide 17, c(rG*DA*AA)]
IC50 (human αvβ3-integrin): 2350 nM

B1: peptide 12, c(*aRGDA*A) (peptide)
peptide: cyclo([dNMeA]RGDA[NMeA])
notes: NMe(1,6) scaffold cyclic hexapeptide; also called the drug
IC50 (human αvβ5-integrin): 1500 nM | IC50 (human αvβ3-integrin): 4.8 nM | IC50 (human αvβ6-Integrin [2]): 770 nM

cyclo([dR]GDA[NMeA][NMeA]) (NMe(5,6) scaffold cyclic hexapeptide) [peptide 23, c(rGDA*A*A)]
IC50 (human αvβ3-integrin): 73 nM | IC50 (human αvβ6-Integrin [2]): 130 nM

RTDLDSLRT (Internal standard for αvβ6 and αvβ8) [linear peptide RTDLDSLRT]
IC50 (human αvβ8-Integrin): 8 to 100 nM | IC50 (human αvβ6-Integrin [3]): 6 to 33 nM

cyclo([dNMeR]GDA[NMeA]A) (NMe(1,5) scaffold cyclic hexapeptide) [peptide 5, c(*rGDA*AA)]
IC50 (human αvβ5-integrin): 170 nM | IC50 (human αvβ3-integrin): 13 nM | IC50 (human αvβ6-Integrin [2]): 25 nM

cyclo([dNMeR]GDA[NMeA]V) (NMe(1,5) scaffold cyclic hexapeptide) [peptide 32, c(*rGDA*AV)]
IC50 (human αvβ3-integrin): 5.6 nM | IC50 (human αvβ6-Integrin [2]): 3.8 nM

cyclo([dNMeR]GDA[NMeA]F) (NMe(1,5) scaffold cyclic hexapeptide) [peptide 33, c(*rGDA*AF)]
IC50 (human αvβ3-integrin): 4.4 nM | IC50 (human αvβ6-Integrin [2]): 25 nM
